This note sets out measurements from patent publication US20040072743A1 (priority 2000, published 2004).

For data set [1] the following is noted: female, NMRI, mouse, in vivo, sc.
The conditions of data set [2]: female, NMRI, mouse, in vivo.

As for “H-KFFKFFKFFK-achc-b.Ala-TTCTAACATTTA-NH2 [Compound V]”, the “subcutaneous bioavailability (AUC [s.c.adm]/AUC [i.v. adm])×100%” value in data set [1] is given as 68%. Moreover, in data set [2], the “oral bioavailability (AUC [p.o. adm]/AUC [i.v. adm])×100%” value is 9%.
For “H-KFFKFFKFFK-b.cypr-g.abu-ACTTTGTCGCCA-NH2 [Compound IV]” the same measures were 78% and 24%.
For “H-KFFKFFKFFK-g.abu-PheGly-TTCTAACATTTA-NH2 [Compound VI]”, in that order: 62% and 6%.
As for “H-KFFKFFKFFK-pfPhe-cha-TTCTAACATTTA-NH2 [Compound VII]”, in data set [1], the “subcutaneous bioavailability (AUC [s.c.adm]/AUC [i.v. adm])×100%” value is recorded as 69%. The “oral bioavailability (AUC [p.o. adm]/AUC [i.v. adm])×100%” value in data set [2] amounted to 54%.
